Results published in patent publication US20190375820A1 (ACCELERON PHARMA, published 2019).

T1: activin C (UniProt P55103 237-352)
T1 sequence (looked up): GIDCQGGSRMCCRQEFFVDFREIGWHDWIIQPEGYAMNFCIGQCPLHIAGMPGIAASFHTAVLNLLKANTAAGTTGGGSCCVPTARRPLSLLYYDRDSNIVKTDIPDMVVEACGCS

T2: activin AC (UniProt P08476 311-426; P55103 237-352)
T2 sequence (looked up) 1: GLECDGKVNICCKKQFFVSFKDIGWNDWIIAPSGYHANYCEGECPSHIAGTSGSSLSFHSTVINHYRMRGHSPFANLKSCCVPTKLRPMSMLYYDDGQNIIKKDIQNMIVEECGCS
T2 sequence (looked up) 2: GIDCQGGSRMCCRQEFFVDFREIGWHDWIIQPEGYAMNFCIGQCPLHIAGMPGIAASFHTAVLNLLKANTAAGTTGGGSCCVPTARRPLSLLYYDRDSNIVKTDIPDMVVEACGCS


Assays:
[1] = target: T1, activin C; experiment: SPR (Biacore); receptor-Fc captured via anti-Fc antibody, ligand injected
Method: (§1) Ligands were injected and allowed to flow over the captured receptor protein.

[2] = target: T2, activin AC; experiment: as above
Method: as §1

Binder | Kd [1] | koff [1] | kon [1] | Kd [2] | koff [2] | kon [2] | binding result [1]
ActRIIB-Fc:ALK7-Fc heterodimer (Fc fusion, The receptor parts are the same in both pairs; only the Fc domains differ; also called ALK7-Fc:ActRIIB-Fc heterodimer; ActRIIB-Fc:ALK7-Fc heterodimeric complex) chain 1: GRGEAETRECIYYNANWELERTNQSGLERCEGEQDKRLHCYASWRNSSGTIELVKKGCWLDDFNCYDRQECVATEENPQVYFCCCEGNFCNERFTHLPEAGGPEVTYEPPPTAPTGGGTHTCPPCPAPELLGGPSVFLFPPKPKDTLMISRTPEVTCVVVDVSHEDPEVKFNWYVDGVEVHNAKTKPREEQYNSTYRVVSVLTVLHQDWLNGKEYKCKVSNKALPAPIEKTISKAKGQPREPQVYTLPPSRKEMTKNQVSLTCLVKGFYPSDIAVEWESNGQPENNYKTTPPVLKSDGSFFLYSKLTVDKSRWQQGNVFSCSVMHEALHNHYTQKSLSLSPGK chain 2: GLKCVCLLCDSSNFTCQTEGACWASVMLTNGKEQVIKSCVSLPELNAQVFCHSSNNVTKTECCFTDFCNNITLHLPTASPNAPKLGPMETGGGTHTCPPCPAPELLGGPSVFLFPPKPKDTLMISRTPEVTCVVVDVSHEDPEVKFNWYVDGVEVHNAKTKPREEQYNSTYRVVSVLTVLHQDWLNGKEYKCKVSNKALPAPIEKTISKAKGQPREPQVYTLPPSREEMTKNQVSLTCLVKGFYPSDIAVEWESNGQPENNYDTTPPVLDSDGSFFLYSDLTVDKSRWQQGNVFSCSVMHEALHNHYTQKSLSLSPG | 6.9 nM | 0.0024 s⁻¹ | 350000 M⁻¹ s⁻¹ | 0.22 nM | 0.00057 s⁻¹ | 2.6e+06 M⁻¹ s⁻¹ | –
ActRIIB-Fc homodimer (Fc fusion, also called ActRIIB-Fc homodimeric complex; ActRIIB homodimer; not shown: linker and Fc domain) SGRGEAETRECIYYNANWELERTNQSGLERCEGEQDKRLHCYASWRNSSGTIELVKKGCWLDDFNCYDRQECVATEENPQVYFCCCEGNFCNERFTHLPEAGGPEVTYEPPPTAPTLLT | – | – | – | 0.16 nM | 0.0031 s⁻¹ | 2e+07 M⁻¹ s⁻¹ | –
ALK7-Fc homodimer (Fc fusion, also called ALK7-Fc homodimeric complex; ALK7 homodimer; not shown: linker and Fc domain) LSPGLKCVCLLCDSSNFTCQTEGACWASVMLTNGKEQVIKSCVSLPELNAQVFCHSSNNVTKTECCFTDFCNNITLHLPTASPNAPKLGPME | – | – | – | – | – | – | no binding
